Data published in publication PMC12432895 (Molecular Therapy, 2025).

Biological target: recombinant soluble full-length human TDP-43 (transactive response DNA binding protein-43) (Homo sapiens (Human)., UniProt Q13148)
Assay: SPR

Sequence of recombinant soluble full-length human TDP-43 (transactive response DNA binding protein-43) (Q13148 whole entry): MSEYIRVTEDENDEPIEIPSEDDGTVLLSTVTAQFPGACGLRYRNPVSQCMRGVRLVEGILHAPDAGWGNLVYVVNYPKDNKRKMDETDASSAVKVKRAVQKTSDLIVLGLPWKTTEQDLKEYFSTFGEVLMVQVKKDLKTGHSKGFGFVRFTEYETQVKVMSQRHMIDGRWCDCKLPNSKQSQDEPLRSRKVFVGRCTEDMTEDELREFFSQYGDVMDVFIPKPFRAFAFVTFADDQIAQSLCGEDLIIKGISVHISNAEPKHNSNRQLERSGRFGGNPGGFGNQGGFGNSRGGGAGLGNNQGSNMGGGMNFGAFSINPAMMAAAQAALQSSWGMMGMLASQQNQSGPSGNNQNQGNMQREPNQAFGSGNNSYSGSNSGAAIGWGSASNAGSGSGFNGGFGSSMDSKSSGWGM

Binder | Kd [nM]
ACI-5891 human IgG1 chimeric reference mAb, conventionally produced (antibody, V domains shown) VH: EVQLQQSGPELVKPGASVKISCKTSGFTFTEYSMHWVKQSHGKSLEWIGGINPNNGGTSYNQKFKGKATLTVDKSSSTAYMELRSLTSEDSAVYYCARESWGQGTTLTVSS VL: not shown | 0.087
ACI-5891 human IgG1 chimeric mAb produced with the bicistronic IRES-LC/HC expression cassette (antibody, V domains shown) VH: EVQLQQSGPELVKPGASVKISCKTSGFTFTEYSMHWVKQSHGKSLEWIGGINPNNGGTSYNQKFKGKATLTVDKSSSTAYMELRSLTSEDSAVYYCARESWGQGTTLTVSS VL: not shown | 0.092

Second part, the binder after the results:

Kd [nM] | Binder
0.09 | ACI-5891 mouse IgG2a mAb produced with the bicistronic IRES-LC/HC expression cassette (antibody, V domains shown) VH: EVQLQQSGPELVKPGASVKISCKTSGFTFTEYSMHWVKQSHGKSLEWIGGINPNNGGTSYNQKFKGKATLTVDKSSSTAYMELRSLTSEDSAVYYCARESWGQGTTLTVSS VL: not shown
0.092 | anti-human TDP-43 mAb ACI-5891, mouse IgG2a, conventionally produced reference mAb (antibody, V domains shown) VH: EVQLQQSGPELVKPGASVKISCKTSGFTFTEYSMHWVKQSHGKSLEWIGGINPNNGGTSYNQKFKGKATLTVDKSSSTAYMELRSLTSEDSAVYYCARESWGQGTTLTVSS VL: not shown
